Experimental data reported in PMC12098678.
Values belong to the substance of their own block, whether it stands above or below them.

Legend:
[1] = biological target: human recombinant biotinylated FcRn (neonatal Fc receptor) (human) (UniProt P55899); assay: SPR; ProteOn XPR36; biotinylated human FcRn immobilised on an NLC chip, IL-12Fc variants or control antibodies as analytes (0-6075 nM); histidine buffer (20 mM histidine, 150 mM NaCl, 0.05% Tween 20) pH 6.0; KD from binding equilibrium analysis; values of Figure 2B (for WT and NHQ those of the channel labelled 100-115 RU in the sheet of Figure S2C)
[2] = biological target: human recombinant biotinylated FcRn (neonatal Fc receptor) (human) (UniProt P55899)
[3] = biological target: human recombinant biotinylated FcRn (neonatal Fc receptor) (human) (UniProt P55899); assay: SPR; as a1, channel L5, FcRn coating density labelled 30-35 RU; WT 365-4.5 nM, NHQ 3645-45 nM; pH 6.0; equilibrium analysis
[4] = biological target: human recombinant biotinylated FcRn (neonatal Fc receptor) (human) (UniProt P55899); assay: SPR; as a1, channel L4, FcRn coating density labelled 75-80 RU; WT 365-4.5 nM, NHQ 3645-45 nM; pH 6.0; equilibrium analysis
[5] = biological target: human recombinant biotinylated FcRn (neonatal Fc receptor) (human) (UniProt P55899); assay: SPR; as a1, channel L1, FcRn coating density labelled 550-600 RU; WT 365-4.5 nM, NHQ 3645-45 nM; pH 6.0; equilibrium analysis
[6] = biological target: human recombinant biotinylated FcRn (neonatal Fc receptor) (human) (UniProt P55899); assay: SPR; as a1, channel L2, FcRn coating density labelled 250-260 RU; WT 365-4.5 nM, NHQ 3645-45 nM; pH 6.0; equilibrium analysis

Kd [1]: 0.218 µM
Substance: Control IgG1 (antibody)

IL-12 level in the ipsilateral brain hemisphere 6 h after CED of 1 ug into the striatum of hFcRn Tg32 mice, compared to the IAQ and AAA variants and WT IL-12Fc [2]: > 30%
Substance: human IL-12Fc NHQ (I253N H435Q), FcRn-silenced IL-12Fc (Fc fusion)

Kd [3]: 0.445 µM | Kd [4]: 0.186 µM | Kd [1]: 0.101 µM | Kd [5]: 0.216 µM | Kd [6]: 0.0601 µM
Substance: IL-12Fc WT (IHH) (Fc fusion)

The next lines start with the substance.

Substance: IL-12Fc WT S228P (Fc fusion)
Kd [1]: 0.182 µM

Substance: Control IgG4 (antibody)
Kd [1]: 0.343 µM

Substance: human IL-12Fc WT (IHH), single-chain IL-12 fused to human IgG4 Fc (Fc fusion)
residual brain level of IL-12Fc WT 6 h after CED in hFcRn Tg32 mice given the FcRn inhibitor MST-HN Fc (100 ug i.v.) beforehand [2]: > 50%
